Results as given in the Human Domainome abundance scans (Beltran et al. 2025).
± gives the uncertainty stated by the source.

Experiment: abundance fitness (aPCA) (normalised: wild type 0, dead -1); higher = more abundant; growth selection in yeast, the domain comes from the species named
Conditions: Homo sapiens
“Transcriptional activator Myb P174L, P10242” showed an abundance fitness of -0.443 ± 0.082.
“Transcriptional activator Myb R190Q, P10242” gave an abundance fitness of 0.026 ± 0.12.
“Transcriptional activator Myb R190E, P10242” showed an abundance fitness of -0.161 ± 0.093.
With “Transcriptional activator Myb T148M, P10242” the abundance fitness was -0.462 ± 0.052.
With “Transcriptional activator Myb I154M, P10242” the abundance fitness was -0.296 ± 0.085.
“Transcriptional activator Myb I154K, P10242” gave an abundance fitness of 0.008 ± 0.095.
“Transcriptional activator Myb W185P, P10242” gave an abundance fitness of -0.688 ± 0.15.
“Transcriptional activator Myb R190I, P10242” showed an abundance fitness of -0.265 ± 0.14.
Substance “Transcriptional activator Myb R190V, P10242” has an abundance fitness of -0.01 ± 0.089.
“Transcriptional activator Myb Y198A, P10242” gave an abundance fitness of 0.01 ± 0.086.
With “Transcriptional activator Myb A167K, P10242” the abundance fitness was -0.124 ± 0.11.
For “Transcriptional activator Myb W166M, P10242”, the abundance fitness was -0.708 ± 0.15.
Work on “Transcriptional activator Myb L199Y, P10242” yielded an abundance fitness of -0.175 ± 0.21.
For “Transcriptional activator Myb L173G, P10242”, the abundance fitness was -1.08 ± 0.11.
“Transcriptional activator Myb A170D, P10242” showed an abundance fitness of -0.692 ± 0.12.
“Transcriptional activator Myb N183F, P10242” showed an abundance fitness of -0.176 ± 0.14.
Work on “Transcriptional activator Myb M189S, P10242” yielded an abundance fitness of -0.303 ± 0.065.
Work on “Transcriptional activator Myb K182R, P10242” yielded an abundance fitness of 0.068 ± 0.056.
Work on “Transcriptional activator Myb L172M, P10242” yielded an abundance fitness of -0.175 ± 0.09.
“Transcriptional activator Myb L199W, P10242” showed an abundance fitness of -0.167 ± 0.1.
“Transcriptional activator Myb E194Q, P10242” showed an abundance fitness of -0.125 ± 0.13.
Substance “Transcriptional activator Myb W147Y, P10242” has an abundance fitness of -0.22 ± 0.045.
Substance “Transcriptional activator Myb V193K, P10242” has an abundance fitness of -0.154 ± 0.14.
Work on “Transcriptional activator Myb G175W, P10242” yielded an abundance fitness of -0.168 ± 0.077.
With “Transcriptional activator Myb T148R, P10242” the abundance fitness was -0.307 ± 0.035.
With “Transcriptional activator Myb D152N, P10242” the abundance fitness was -0.227 ± 0.074.
Work on “Transcriptional activator Myb E151T, P10242” yielded an abundance fitness of -0.731 ± 0.12.
In the case of “Transcriptional activator Myb D152K, P10242”, the abundance fitness is reported as -0.311 ± 0.1.
For “Transcriptional activator Myb G175N, P10242”, the abundance fitness was -0.197 ± 0.18.
“Transcriptional activator Myb T148W, P10242” showed an abundance fitness of -0.901 ± 0.058.
“Transcriptional activator Myb D152L, P10242” gave an abundance fitness of -0.249 ± 0.075.
For “Transcriptional activator Myb I181P, P10242”, the abundance fitness was -0.881 ± 0.25.
In the case of “Transcriptional activator Myb A180W, P10242”, the abundance fitness is reported as -0.28 ± 0.11.
Work on “Transcriptional activator Myb G175I, P10242” yielded an abundance fitness of -0.961 ± 0.35.
With “Transcriptional activator Myb S203W, P10242” the abundance fitness was -0.015 ± 0.097.
With “Transcriptional activator Myb T188G, P10242” the abundance fitness was -0.058 ± 0.032.
In the case of “Transcriptional activator Myb K204D, P10242”, the abundance fitness is reported as -0.164 ± 0.15.
Substance “Transcriptional activator Myb Q200G, P10242” has an abundance fitness of 0.014 ± 0.049.
In the case of “Transcriptional activator Myb W147R, P10242”, the abundance fitness is reported as -0.824 ± 0.039.
“Transcriptional activator Myb W185E, P10242” showed an abundance fitness of -0.614 ± 0.068.
In the case of “Transcriptional activator Myb R176H, P10242”, the abundance fitness is reported as 0.043 ± 0.16.
“Transcriptional activator Myb K144N, P10242” gave an abundance fitness of 0.073 ± 0.11.
For “Transcriptional activator Myb D152F, P10242”, the abundance fitness was -0.752 ± 0.12.
In the case of “Transcriptional activator Myb K204N, P10242”, the abundance fitness is reported as -0.153 ± 0.097.
Work on “Transcriptional activator Myb E149D, P10242” yielded an abundance fitness of -0.008 ± 0.27.
“Transcriptional activator Myb I154F, P10242” gave an abundance fitness of -0.914 ± 0.13.
For “Transcriptional activator Myb K144W, P10242”, the abundance fitness was -0.201 ± 0.089.
For “Transcriptional activator Myb K171E, P10242”, the abundance fitness was -0.017 ± 0.064.
“Transcriptional activator Myb G197H, P10242” showed an abundance fitness of -0.395 ± 0.21.
Work on “Transcriptional activator Myb R190P, P10242” yielded an abundance fitness of -0.335 ± 0.083.
With “Transcriptional activator Myb L199F, P10242” the abundance fitness was -0.179 ± 0.097.
In the case of “Transcriptional activator Myb K192M, P10242”, the abundance fitness is reported as -0.122 ± 0.16.
Work on “Transcriptional activator Myb K143M, P10242” yielded an abundance fitness of -0.031 ± 0.16.
Substance “Transcriptional activator Myb R190M, P10242” has an abundance fitness of 0.06 ± 0.14.
“Transcriptional activator Myb T145Q, P10242” showed an abundance fitness of -0.171 ± 0.15.
Substance “Transcriptional activator Myb Y198D, P10242” has an abundance fitness of -0.035 ± 0.12.
With “Transcriptional activator Myb R153C, P10242” the abundance fitness was -0.451 ± 0.098.
With “Transcriptional activator Myb N183G, P10242” the abundance fitness was -0.067 ± 0.063.
With “Transcriptional activator Myb E196S, P10242” the abundance fitness was -0.052 ± 0.064.
“Transcriptional activator Myb W147V, P10242” showed an abundance fitness of -0.65 ± 0.036.
Substance “Transcriptional activator Myb K144F, P10242” has an abundance fitness of -0.285 ± 0.16.
In the case of “Transcriptional activator Myb P174A, P10242”, the abundance fitness is reported as -0.359 ± 0.066.
Substance “Transcriptional activator Myb E168A, P10242” has an abundance fitness of -0.287 ± 0.093.
“Transcriptional activator Myb I155K, P10242” gave an abundance fitness of -0.736 ± 0.11.
“Transcriptional activator Myb R190F, P10242” showed an abundance fitness of 0.009 ± 0.13.
With “Transcriptional activator Myb I154V, P10242” the abundance fitness was -0.03 ± 0.05.
“Transcriptional activator Myb E168R, P10242” gave an abundance fitness of -0.541 ± 0.067.
For “Transcriptional activator Myb G197W, P10242”, the abundance fitness was -0.229 ± 0.086.
In the case of “Transcriptional activator Myb N186Y, P10242”, the abundance fitness is reported as -0.154 ± 0.15.
“Transcriptional activator Myb T188A, P10242” gave an abundance fitness of -0.107 ± 0.046.
“Transcriptional activator Myb N179C, P10242” showed an abundance fitness of -0.022 ± 0.088.
Substance “Transcriptional activator Myb Y156D, P10242” has an abundance fitness of -0.049 ± 0.086.
“Transcriptional activator Myb E149L, P10242” gave an abundance fitness of 0.009 ± 0.22.
“Transcriptional activator Myb R153M, P10242” showed an abundance fitness of -0.11 ± 0.11.
“Transcriptional activator Myb K192W, P10242” showed an abundance fitness of -0.334 ± 0.11.
In the case of “Transcriptional activator Myb S203V, P10242”, the abundance fitness is reported as 0.055 ± 0.082.
In the case of “Transcriptional activator Myb L173A, P10242”, the abundance fitness is reported as -0.623 ± 0.11.
In the case of “Transcriptional activator Myb L199P, P10242”, the abundance fitness is reported as -0.013 ± 0.1.
Substance “Transcriptional activator Myb E151C, P10242” has an abundance fitness of -1.1 ± 0.21.
For “Transcriptional activator Myb K204Q, P10242”, the abundance fitness was 0.192 ± 0.19.
In the case of “Transcriptional activator Myb R153P, P10242”, the abundance fitness is reported as -1.12 ± 0.18.
“Transcriptional activator Myb K192D, P10242” showed an abundance fitness of -0.448 ± 0.21.
Work on “Transcriptional activator Myb I169R, P10242” yielded an abundance fitness of -0.784 ± 0.071.
Work on “Transcriptional activator Myb T188K, P10242” yielded an abundance fitness of -0.115 ± 0.061.
Work on “Transcriptional activator Myb Y156L, P10242” yielded an abundance fitness of 0.004 ± 0.047.
For “Transcriptional activator Myb Y156F, P10242”, the abundance fitness was 0.091 ± 0.11.
For “Transcriptional activator Myb R153E, P10242”, the abundance fitness was -0.144 ± 0.079.
“Transcriptional activator Myb D152V, P10242” showed an abundance fitness of -0.304 ± 0.067.
“Transcriptional activator Myb V193Y, P10242” gave an abundance fitness of -0.117 ± 0.23.
For “Transcriptional activator Myb N183S, P10242”, the abundance fitness was -0.019 ± 0.085.
With “Transcriptional activator Myb I155V, P10242” the abundance fitness was -0.187 ± 0.075.
Substance “Transcriptional activator Myb E194R, P10242” has an abundance fitness of -0.102 ± 0.089.
“Transcriptional activator Myb G163C, P10242” showed an abundance fitness of -0.468 ± 0.093.
“Transcriptional activator Myb R176D, P10242” gave an abundance fitness of -0.66 ± 0.14.
With “Transcriptional activator Myb L173I, P10242” the abundance fitness was 0.253 ± 0.44.
Substance “Transcriptional activator Myb T177G, P10242” has an abundance fitness of -0.12 ± 0.043.
“Transcriptional activator Myb E168W, P10242” gave an abundance fitness of -0.79 ± 0.1.
“Transcriptional activator Myb P174T, P10242” gave an abundance fitness of -0.184 ± 0.074.
Substance “Transcriptional activator Myb P174N, P10242” has an abundance fitness of -0.255 ± 0.16.
With “Transcriptional activator Myb K144D, P10242” the abundance fitness was 0.06 ± 0.14.
Substance “Transcriptional activator Myb I169Y, P10242” has an abundance fitness of -0.147 ± 0.097.
Substance “Transcriptional activator Myb Q195M, P10242” has an abundance fitness of -0.199 ± 0.16.
In the case of “Transcriptional activator Myb K204V, P10242”, the abundance fitness is reported as -0.29 ± 0.22.
“Transcriptional activator Myb D152T, P10242” showed an abundance fitness of -0.138 ± 0.082.
For “Transcriptional activator Myb W147L, P10242”, the abundance fitness was -0.434 ± 0.035.
“Transcriptional activator Myb T188F, P10242” showed an abundance fitness of -0.214 ± 0.14.
Work on “Transcriptional activator Myb A167T, P10242” yielded an abundance fitness of -0.126 ± 0.12.
Work on “Transcriptional activator Myb K182L, P10242” yielded an abundance fitness of -0.051 ± 0.068.
